# Test results as given in the supplement of paper PMC7877785.
# ± gives the uncertainty stated by the source.
# Test: self-splicing fitness, log relative to wild type (ln ratio); higher = more splicing; Tetrahymena group I intron in knt gene, E. coli kanamycin selection, DiMSum; sequences stand for … in CUCUCU…GGAGGGAAAAGUUAUCAGGCAUGCACCUGGUAGCUAGUCUUUAAACCAAUAGAUUGCAUCGGUUUAAAAGGCAAGACCGUCAAAUUGCGGGAAAGGGGUCAACAGCCGUUCAGUACCAAGUCUCAGGGGAAACUUUGAGAUGGCCUUGCAAAGGGUAUGGUAAUAAGCUGACGGACAUGGUCCUAACCACGCAGCCAAGUCCUAAGUCAACAGAUCUUCUGUUGAUAUGGAUGCAGUUCACAGACUAAAUGUCGGUCGGGGAAGAUGUAUUCUUCUCAUAAGAUAUAGUCGGACCUCUCCUUAAUGGGAGCUAGCGGAUGAAGUGAUGCAACACUGGAGCCGCUGGGAACUAAUUUGUAUGCGAAAGUAUAUUGAUUAGUUUUGGAGUACUCGUGGUCG
# Procedure, shortened: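 Six replicate transformations of E. coli BL21(DE3) with a pET-22b(+) library were grown overnight at 37°C or 30°C. The library randomised all eight P1ex-region intron nucleotides, the intron lying in the knt kanamycin-resistance gene, and plates were LB agar with or without 25 μg/mL kanamycin plus 100 μg/mL carbenicillin, 50 μM IPTG and 0.2% rhamnose. Pooled colonies were amplicon-sequenced on an Illumina HiSeq 2500, and fitness is the DiMSum error-weighted combination of wild-type-normalised replicate fold changes, kanamycin versus none.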
Sequence,self-splicing fitness (ln) (30 °C),self-splicing fitness (ln) (37 °C)
ACGAAGCAAUAUUACGCGGA,-1.96 ± 0.17,-1.33 ± 0.13
AGAAAGCAAUAUUACGCGUC,-1.84 ± 0.12,-1.32 ± 0.15
CAACAGCAAUAUUACGCAUU,-3.14 ± 0.091,-1.79 ± 0.089
GUUUAGCAAUAUUACGAAUU,-2.25 ± 0.38,-0.545 ± 0.31
GUCCAGCAAUAUUACGUCUG,-3.8 ± 0.47,-2.47 ± 0.33
AAAGAGCAAUAUUACGCUCU,,-2.45 ± 0.49
CCGCAGCAAUAUUACGCUUC,-4.17 ± 0.46,
UAGUAGCAAUAUUACGGAAC,-2.97 ± 0.3,-3.42 ± 0.42
UCAUAGCAAUAUUACGCACU,-3.19 ± 0.25,-3.18 ± 0.32
GAAGAGCAAUAUUACGUAUA,-2 ± 0.28,-3.5 ± 0.34
AAUUAGCAAUAUUACGCCUU,-0.243 ± 0.11,-0.0919 ± 0.12
AGUAAGCAAUAUUACGACCC,-1.01 ± 0.47,-0.157 ± 0.35
GCGCAGCAAUAUUACGUAUU,-0.596 ± 0.081,-0.709 ± 0.099
CGGGAGCAAUAUUACGUUAA,-2.63 ± 0.28,-1.68 ± 0.3
CACGAGCAAUAUUACGCCUU,-2.3 ± 0.2,-2.76 ± 0.4
UAACAGCAAUAUUACGGAAC,-3.85 ± 0.24,-4.18 ± 0.39
CGUGAGCAAUAUUACGGCUC,-3.79 ± 0.42,-1.23 ± 0.27
UACGAGCAAUAUUACGUCAG,-3.08 ± 0.34,-3.01 ± 0.36
GUAUAGCAAUAUUACGGGAU,-3.5 ± 0.29,-0.308 ± 0.11
AACAAGCAAUAUUACGACAU,-0.261 ± 0.01,0.0604 ± 0.032
GCUUAGCAAUAUUACGGGUA,-1.43 ± 0.15,-0.513 ± 0.12
GUCAAGCAAUAUUACGGAUA,-2.47 ± 0.19,-1.27 ± 0.17
GUGAAGCAAUAUUACGGAUU,-0.624 ± 0.1,-0.344 ± 0.12
CGAUAGCAAUAUUACGAAGU,-2.89 ± 0.18,-2.58 ± 0.23
UCCGAGCAAUAUUACGGCUG,-2.83 ± 0.19,-1.6 ± 0.29

Sequence,self-splicing fitness (ln) (30 °C),self-splicing fitness (ln) (37 °C)
CUUCAGCAAUAUUACGCCAA,,-2.31 ± 0.48
GAGGAGCAAUAUUACGGACG,-3.42 ± 0.36,-0.785 ± 0.49
GCGUAGCAAUAUUACGUCCA,-1.49 ± 0.099,-0.365 ± 0.1
CAGGAGCAAUAUUACGUUUU,-3.95 ± 0.35,-2.3 ± 0.23
GUCCAGCAAUAUUACGCUUA,-0.882 ± 0.067,-0.314 ± 0.07
UUGCAGCAAUAUUACGGAGC,-2.2 ± 0.15,
GGCAAGCAAUAUUACGAGCC,-2.21 ± 0.43,-1.52 ± 0.44
CUCGAGCAAUAUUACGUCUA,-1.79 ± 0.24,-2.43 ± 0.31
CACAAGCAAUAUUACGGAUG,-2.59 ± 0.095,-0.904 ± 0.087
CCGCAGCAAUAUUACGUUCA,-3.89 ± 0.27,-2 ± 0.16
UGUCAGCAAUAUUACGAUUU,-0.0817 ± 0.061,0.461 ± 0.082
CUCGAGCAAUAUUACGAGUG,-1.7 ± 0.1,-1.47 ± 0.12
CCUAAGCAAUAUUACGGAGG,-4.42 ± 0.29,-2.71 ± 0.31
CGGUAGCAAUAUUACGGCAU,-2.98 ± 0.32,-2.11 ± 0.22
AACCAGCAAUAUUACGGUCC,-0.721 ± 0.089,-0.491 ± 0.12
GACGAGCAAUAUUACGCGGA,-2.74 ± 0.23,-2.87 ± 0.36
CUCGAGCAAUAUUACGACCA,-3.07 ± 0.26,-2.22 ± 0.49
CUGUAGCAAUAUUACGCCAU,-3.3 ± 0.34,
AUAAAGCAAUAUUACGUGUA,-1.55 ± 0.069,-0.325 ± 0.089
CUUGAGCAAUAUUACGCACC,,-1.68 ± 0.4
AUUGAGCAAUAUUACGUGUC,-4.77 ± 0.26,-2.53 ± 0.15
CGUCAGCAAUAUUACGGGCG,-3.15 ± 0.16,-2.8 ± 0.21
CACCAGCAAUAUUACGUCAA,-3.64 ± 0.42,-2.31 ± 0.19
GGACAGCAAUAUUACGGUGA,-0.838 ± 0.063,-0.167 ± 0.071
